Measured values reported in the supplement of paper PMC7125110.
± gives the standard error. This sample holds only a part of the variants without activity.

B1: glmS ribozyme (parent)
chain: AUAAAAGCGCCAGAACUACAGAAAUGUAGUUGACGAGGAGGAGGUUUAUCGAAUUUUCGGCGGAUGCCUCCAAA

What was measured:
Conditions in all cases: with glucosamine-6-phosphate
[1] = variants of: B1; experiment: self-cleavage kobs at 640 uM GlcN6P; higher = faster cleavage; RNA array
In short: (§1)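 Glucosamine-6-phosphate in HEPES/KCl/Mg(OAc)2 buffer, at 40 μM to 10 mM, was flowed over barcoded ribozyme variants transcribed in situ by E. coli RNA polymerase on sequenced MiSeq chips. Tracking was through a hybridised Cy3 probe at 37 °C. kobs, kcat and KM came from exponential decay fits and weighted Michaelis–Menten fits of normalised per-tile medians.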

[2] = variants of: B1; experiment: self-cleavage kobs at 2500 uM GlcN6P; higher = faster cleavage; RNA array
In short: as §1

[3] = variants of: B1; experiment: self-cleavage kobs at 10000 uM GlcN6P; higher = faster cleavage; RNA array
In short: as §1

Variant	self-cleavage kobs at 640 uM GlcN6P [1]	self-cleavage kobs at 2500 uM GlcN6P [2]	self-cleavage kobs at 10000 uM GlcN6P [3]
G35A G37A U46A G51C G59U	< 1e-05 s⁻¹	< 1e-05 s⁻¹	–
A33U C34G U49A A53U	< 1e-05 s⁻¹	–	< 1e-05 s⁻¹
G35A G40U G62U	< 1e-05 s⁻¹	< 1e-05 s⁻¹	–
G29C A33G G40A U56C	< 1e-05 s⁻¹	–	–
C19A U30A	0.000125 ± 2.9e-05 s⁻¹	0.000235 ± 4.3e-05 s⁻¹	–
G35A C50U G62C C68G	< 1e-05 s⁻¹	–	–
U31G G37C G38C	< 1e-05 s⁻¹	< 1e-05 s⁻¹	–
U31A A53G U65A C70A	6.1e-05 ± 2.4e-05 s⁻¹	–	–
U30A G40U G63A A64G	< 1e-05 s⁻¹	–	–
U30C C67A C70G	6.32e-05 ± 1.4e-05 s⁻¹	–	–
A33G G38U U49C C71U	< 1e-05 s⁻¹	< 1e-05 s⁻¹	–
A33G G38U U65A C70G	7.69e-05 ± 2.1e-05 s⁻¹	–	–
G35A A39G C61U	< 1e-05 s⁻¹	< 1e-05 s⁻¹	–
U31C G37A	0.000113 ± 2.3e-05 s⁻¹	0.000119 ± 1.8e-05 s⁻¹	0.000359 ± 3.4e-05 s⁻¹
G29A U47G A53G C61U U65A	< 1e-05 s⁻¹	–	–
U30C G37U G44C C58U C67U	< 1e-05 s⁻¹	–	–
A33U C34U C70G	0.00168 ± 0.00079 s⁻¹	–	–
U31A C58G A64C C68U	0.00011 ± 3.5e-05 s⁻¹	8.36e-05 ± 2.2e-05 s⁻¹	–
C34G U45A U57C	< 1e-05 s⁻¹	–	–
G29A U45C U46G A53C C67G U69G	< 1e-05 s⁻¹	< 1e-05 s⁻¹	–
A33C G59A C67U	< 1e-05 s⁻¹	–	–
U31G G35U A36G U47A A64G C68U C71G	9.41e-05 ± 3.3e-05 s⁻¹	–	–
G29A A33U G44U	< 1e-05 s⁻¹	–	–
A33U U57A C58U C70A C71G	9.76e-05 ± 2.5e-05 s⁻¹	–	–

Variant	self-cleavage kobs at 640 uM GlcN6P [1]	self-cleavage kobs at 2500 uM GlcN6P [2]	self-cleavage kobs at 10000 uM GlcN6P [3]
U30C C50G C61G	0.000327 ± 0.00012 s⁻¹	–	–
C16G U45A C58A	6.95e-05 ± 1.6e-05 s⁻¹	0.000197 ± 3.9e-05 s⁻¹	–
U30G U31A U65A	0.000791 ± 0.00013 s⁻¹	0.000896 ± 0.00022 s⁻¹	–
U30C G32U C34G G51U	< 1e-05 s⁻¹	< 1e-05 s⁻¹	–
U31G G38U U69A C71U	0.000772 ± 0.0003 s⁻¹	–	–
G35A A36C C61G A64G	< 1e-05 s⁻¹	–	–
C34G U49A G66A	< 1e-05 s⁻¹	–	–
G29C A53G G63U	< 1e-05 s⁻¹	–	–
A33C A42U C67A	< 1e-05 s⁻¹	–	–
C16G G29A G40A A42C	< 1e-05 s⁻¹	< 1e-05 s⁻¹	–
C16G C34G A42C G43A	< 1e-05 s⁻¹	–	–
U30A A42C C71U	< 1e-05 s⁻¹	–	–
G32U A42G G66U C68U	< 1e-05 s⁻¹	–	–
U31C G38U G41U G63C	< 1e-05 s⁻¹	–	–
U30A G51U A53C G59A G60C C70G	< 1e-05 s⁻¹	–	–
G32U U55G C71U	0.00014 ± 3.5e-05 s⁻¹	–	0.000518 ± 0.00011 s⁻¹
G29C U31G A36U	< 1e-05 s⁻¹	–	–
A33U G35C G63U	< 1e-05 s⁻¹	< 1e-05 s⁻¹	–
C16U A53G C70A	0.000224 ± 3.5e-05 s⁻¹	0.000232 ± 6.5e-05 s⁻¹	–
C16U G32C G35A C68A	< 1e-05 s⁻¹	< 1e-05 s⁻¹	–
G29A G43A U56A	< 1e-05 s⁻¹	–	–
U17G G62U	< 1e-05 s⁻¹	–	–
C16G G35C U55A U56A	< 1e-05 s⁻¹	< 1e-05 s⁻¹	–
G32U A52U C58U C61U	< 1e-05 s⁻¹	< 1e-05 s⁻¹	–

Variant	self-cleavage kobs at 640 uM GlcN6P [1]	self-cleavage kobs at 2500 uM GlcN6P [2]	self-cleavage kobs at 10000 uM GlcN6P [3]
G29U U45G U65C	< 1e-05 s⁻¹	< 1e-05 s⁻¹	–
G29A G40A A64G	5.47e-05 ± 1.8e-05 s⁻¹	0.000112 ± 2.1e-05 s⁻¹	–
G29A G38C C70A	6.65e-05 ± 3.1e-05 s⁻¹	–	–
G29U A42G U45C	6.45e-05 ± 2.4e-05 s⁻¹	0.000107 ± 3.3e-05 s⁻¹	–
G32U A42C C58U	< 1e-05 s⁻¹	< 1e-05 s⁻¹	–
C34A G44C C58U	< 1e-05 s⁻¹	< 1e-05 s⁻¹	–
U30G C34A C68A	< 1e-05 s⁻¹	–	–
G29C A53G C68A	0.000139 ± 5.9e-05 s⁻¹	9.57e-05 ± 3.7e-05 s⁻¹	–
G29A G32U G40U G44U	< 1e-05 s⁻¹	< 1e-05 s⁻¹	–
G29C A39G U46A U65G	0.000174 ± 6.2e-05 s⁻¹	0.000622 ± 0.00019 s⁻¹	–
U30A A48C C58U G59C	< 1e-05 s⁻¹	–	–
G29A U30A U31C	0.000152 ± 2.2e-05 s⁻¹	0.000309 ± 6.5e-05 s⁻¹	–
G32C G35U U46A C68G	< 1e-05 s⁻¹	–	–
C34A G35U A36U	< 1e-05 s⁻¹	–	< 1e-05 s⁻¹
G32U G41U A52G G60A	< 1e-05 s⁻¹	–	–
G29C G37C C68G	7.66e-05 ± 3.4e-05 s⁻¹	–	–
A18C G35U U57A	< 1e-05 s⁻¹	–	–
U30A A33G A36C	< 1e-05 s⁻¹	–	–
C16U A33U U49A	< 1e-05 s⁻¹	< 1e-05 s⁻¹	–
G29A G38A U65G	< 1e-05 s⁻¹	< 1e-05 s⁻¹	–
C34G A42C A52U C58U U65G	< 1e-05 s⁻¹	< 1e-05 s⁻¹	–
G32C U47G G59C	< 1e-05 s⁻¹	< 1e-05 s⁻¹	–
